Measured values from patent EP1745799B1.

Biological target: ΔEGFR (extracellular-deleted mutant human EGFR) (human) (UniProt P00533)
Assay: cell-based or functional assay

decrease of the phosphorylation content of immunoprecipitated p155ΔEGFR monomers (scanning densitometry, PY-20 blot of mAb Δ124 immunoprecipitates): 33.7%
ratio of PTyr/ΔEGFRs (scanning densitometry): 1.04
Substance: T691stop neu (ectodomain-derived, carboxyl-terminal deletion mutant of the rat p185neu oncogene) (from UniProt P06494 23-687) (receptor)
